T1: ER-ERE (Homo sapiens, UniProt P03372)
T1 construct: Human full-length ER was inserted into the EcoRI site of pSG5 to produce pSG5-ER; host or cells: TNT coupled reticulocyte lysate, in vitro translation
T1 sequence (P03372 1-595): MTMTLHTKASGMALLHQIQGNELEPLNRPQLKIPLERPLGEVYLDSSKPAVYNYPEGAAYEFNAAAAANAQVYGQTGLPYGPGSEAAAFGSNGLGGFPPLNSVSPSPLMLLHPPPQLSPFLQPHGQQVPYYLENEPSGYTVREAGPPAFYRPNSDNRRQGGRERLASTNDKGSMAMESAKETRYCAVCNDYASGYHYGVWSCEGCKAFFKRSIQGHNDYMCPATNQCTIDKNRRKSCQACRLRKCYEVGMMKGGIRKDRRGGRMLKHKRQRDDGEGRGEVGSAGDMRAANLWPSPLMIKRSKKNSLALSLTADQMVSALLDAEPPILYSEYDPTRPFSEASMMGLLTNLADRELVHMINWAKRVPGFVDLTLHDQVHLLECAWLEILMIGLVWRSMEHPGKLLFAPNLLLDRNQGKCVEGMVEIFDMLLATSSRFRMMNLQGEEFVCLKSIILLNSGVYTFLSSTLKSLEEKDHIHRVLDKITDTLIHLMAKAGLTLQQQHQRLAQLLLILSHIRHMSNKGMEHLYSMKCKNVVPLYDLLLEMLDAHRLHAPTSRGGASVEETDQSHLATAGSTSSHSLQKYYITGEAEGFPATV

B1: TR2: human testicular orphan nuclear receptor 2, 603 amino acids (protein, UniProt P13056 1-603, looked up)
chain: MATIEEIAHQIIEQQMGEIVTEQQTGQKIQIVTALDHNTQGKQFILTNHDGSTPSKVILARQDSTPGKVFLTTPDAAGVNQLFFTTPDLSAQHLQLLTDNSPDQGPNKVFDLCVVCGDKASGRHYGAVTCEGCKGFFKRSIRKNLVYSCRGSKDCIINKHHRNRCQYCRLQRCIAFGMKQDSVQCERKPIEVSREKSSNCAASTEKIYIRKDLRSPLTATPTFVTDSESTRSTGLLDSGMFMNIHPSGVKTESAVLMTSDKAESCQGDLSTLANVVTSLANLGKTKDLSQNSNEMSMIESLSNDDTSLCEFQEMQTNGDVSRAFDTLAKALNPGESTACQSSVAGMEGSVHLITGDSSINYTEKEGPLLSDSHVAFRLTMPSPMPEYLNVHYIGESASRLLFLSMHWALSIPSFQALGQENSISLVKAYWNELFTLGLAQCWQVMNVATILATFVNCLHNSLQQDKMSTERRKLLMEHIFKLQEFCNSMVKLCIDGYEYAYLKAIVLFSPDHPSLENMEQIEKFQEKAYVEFQDYITKTYPDDTYRLSRLLLRLPALRLMNATITEELFFKGLIGNIRIDSVIPHILKMEPADYNSQIIGHSI
modifications: full-length
notes: human testicular orphan nuclear receptor 2, 603 amino acids
B2: TR4: human testicular orphan nuclear receptor 4, SEQ ID NO:16; expressed from plasmid or in vitro translated (protein)
chain: MTSPSPRIQIISTDSAVASPQRIQGSEPASGPLSVFTSLNKEKIVTDQQTGQKIQIVTAVDASGSPKQQFILTSPDGAGTGKVILASPETSSAKQLIFTTSDNLVPGRIQIVTDSASVERLLGKTDVQRPQVVEYCVVCGDKASGRHYGAVSCEGCKGFFKRSVRKNLTYSCRSSQDCIINKHHRNRCQFCRLKKCLEMGMKMESVQSERKPFDVQREKPSNCAASTEKIYIRKDLRSPLIATPTFVADKDGARQTGLLDPGMLVNIQQPLIREDGTVLLATDSKAETSQGALGTLANVVTSLANLSESLNNGDTSEIQPEDQSASEITRAFDTLAKALNTTDSSSSPSLADGIDTSGGGSIHVISRDQSTPIIEVEGPLLSDTHVTFKLTMPSPMPEYLNVHYICESASRLLFLSMHRARSIPAFQGLGQDCNTSLVRACWNELFTLGLAQCAQVMSLSTILAAIVNHLQNSIQEDKLSGDRIKQVMEHIWKLQEFCNSMANWDIDGYEYAYLKAIVLFSPDHPGLTSTSQIEKFQEKAQMELQDYVQKTYSEDTYRLARILVRLPALRLMSSNITEELFFTGLIGNVSIDSIIPYILKMETAEYNGQITGVSL

Experiments:
ERβ = molecular target: T2, ERβ (Mus musculus, UniProt O08537); experiment: ERβ-mediated transactivation (ERE reporter); assay type: cell-based
T2 construct: expressed in transfected cells; host or cells: HEK293 (TR2 experiment), H1299 (TR4 experiment)
Protocol: (A) TR2 repression of ER-mediated ERE-tk-CAT reporter genes in PC-3, H1299, MCF7, and T47D cells. Cells in 60-mm dishes were co-transfected with […] of ERE-CAT, pSG5-ER, and/or pCMV-TR2 by calcium phosphate precipitation methods. 1 mg of b-galactosidase expression plasmid, pCMV-b-gal, was used as an internal control for transfection efficiency. CAT activity is presented relative to the response to ethanol, which is set as one. (B) MCF7-pBIG and MCF7-TR2 cells were stably transfected with doxycycline-inducible pBIG2i and pBIG2I-FLAG-TR2 plasmids, respectively. Cells were transfected with […] of pCMV-b-gal and, after 16 hr, were treated with or without […] doxycycline. […] FLAG-TR2 induction was monitored by Western blotting using anti-FLAG antibody (M2), shown in the upper panel. […] Relative mRNA expression amounts were normalized by 28S expression and quantitated by ImageQuant V.1.2 (Molecular Dynamics). […] Luciferase activity was analyzed following manufacturer's instructions (Promega). […]
H1299 and MCF-7 cells were maintained in Dulbecco's modified eagle medium (DMEM) containing penicillin (25 units/ml), streptomycin (25 μg/ml), and 10% fetal calf serum (FBS). […] The CAT activity was visualized by Phosphorlmager (Molecular Dynamics) and quantitated by IMAGEQUANT software (Molecular Dynamics). The luciferase activity was determined by the Luminometer (Turner Designs).

PSA = experiment: Northern blot of endogenous PSA in LNCaP cells; assay type: cell-based, human
Protocol: Total RNA from the DHT-treated transfected LNCaP cells was prepared by the ultracentrifugation method as described. Lee, et al., J: Biol. Chem. 273, 13437-13443 (1998). The probe was obtained from exon 3 of PSA gene and labeled with a-32p dCTP.
To rule out the potential artificial effects linked to transfected reporter assays, the expression of endogenous prostate specific antigen (PSA, an androgen target that is widely used as a marker for prostate cancer progression) in LNCaP cells was measured by Northern blot analysis. Total RNA (25 μg) from LNCaP cells, which were transfected with either pCMX-TR4 or pCMX vector using SuperFect (Qiagen), was applied into a formamide RNA gel, then transferred onto a Nylon membrane, and then hybridized with a 32P-PSA gene fragment from the exon 3. P-actin was used as an internal control. […] The level of secreted PSA protein in the medium measured by ELISA, also confirmed this conclusion. This in vivo TR4-mediated suppressive effect strongly supports the above reporter assays.
Total RNA from transfected LNCaP cells was prepared using TRIZOL reagents (Life Technology) as instructed by manufacturer. The probe was obtained from the PSA gene by PCR and labeled with 32P dCTP. Northern hybridization was performed as described previously [Mu X. M. et al. (2002) J Biol Chem 275:23877-23883].

ER-ERE = molecular target: T1, ER-ERE; experiment: EMSA with ERE probe; assay type: binding

T2 sequence (O08537 whole entry): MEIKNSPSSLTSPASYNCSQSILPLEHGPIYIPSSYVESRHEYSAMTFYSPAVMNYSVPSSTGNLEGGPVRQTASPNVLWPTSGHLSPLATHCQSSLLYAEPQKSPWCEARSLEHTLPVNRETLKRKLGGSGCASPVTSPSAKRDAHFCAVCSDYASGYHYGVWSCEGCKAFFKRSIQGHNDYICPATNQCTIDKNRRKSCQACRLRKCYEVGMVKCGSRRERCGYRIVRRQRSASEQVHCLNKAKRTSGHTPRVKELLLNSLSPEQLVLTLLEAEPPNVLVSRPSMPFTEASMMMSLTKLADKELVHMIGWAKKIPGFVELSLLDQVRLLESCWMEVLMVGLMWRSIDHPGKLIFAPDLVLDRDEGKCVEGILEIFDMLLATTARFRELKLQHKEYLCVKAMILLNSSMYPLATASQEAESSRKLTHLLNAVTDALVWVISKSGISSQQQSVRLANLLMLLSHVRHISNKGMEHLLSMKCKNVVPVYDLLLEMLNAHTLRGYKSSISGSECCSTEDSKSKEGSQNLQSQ

Row | Molecule | ERβ-mediated transcription (ERE-Luc) (ERβ; HEK293 cells, TR2) | PSA mRNA expression (PSA; LNCaP cells, 10 nM DHT, pCMV-TR2, Example 4) | Intensity of ER-ERE supershift (ER-ERE; increasing amount of TR2, absence or presence of 1 μM E2, Example 1) | Intensity of ER-ERE complexes (ER-ERE; increasing amounts of TR2, absence or presence of 10 nM E2, Example 2) | E2-induced ERE-CAT activity, ERβ (ERβ; H1299 cells, 10 nM E2, increasing TR4 expression plasmid) | Expression of endogenous PSA transcript (PSA; LNCaP cells transfected with pCMX-TR4, absence or presence of 10 nM DHT) | ER-[32P]ERE binding band (ER-ERE; increasing amounts of in vitro expressed TR4)
1 | B1 | suppress | suppresses | decreased | decreased |  |  | 
2 | B2 |  |  |  |  | suppression of the E2-induced CAT activity in a dose-dependent manner | clearly repress | reduced

Source: patent publication US20030235860A1, “Interactions between AR, ER, TR2, and TR4” (priority 1999, published 2003)
